Laboratory results from the supplement of paper PMC10567573.

B1: DVL3 (parent)
chain: HPDPAPFCADNPSELPPPMERTGG
B2: SAT2 (parent)
chain: LTEAEGWHFFCFQGEATRKLAGK

Variants of: B1
Assay: protein stability index of a GFP-peptide fusion (GPS, HEK-293T) (PSI 1-6); higher = more stable
Settings: c terminus: a fixed tail appended
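Further: lentivirally expressed fusions sorted by FACS into six bins by GFP to DsRed ratio, PSI derived from sequencing read proportions per bin multiplied by bin number.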

Protein stability index of substitutions, site by site:
G24: S 3.1
G23: W 2.07 | R 2.89 | V 2.47 | M 2.62
P17: I 2.63 | W 2.54 | Q 3.02 | M 2.54 | V 2.82 | L 2.76 | R 2.62 | H 2.61 | K 2.92 | G 2.6 | S 2.92 | Y 2.86 | N 2.65
E20: G 1.73
P18: I 2.82 | F 2.7 | R 2.8 | H 2.69 | M 2.68 | D 3.27 | Y 2.61 | G 2.79 | W 2.35 | N 3.2 | L 2.95 | Q 3.42 | C 2.94 | V 3.15 | T 3.12 | A 2.48 | E 3.32 | K 2.53 | S 3.05
T22: V 2.02 | A 3.02 | M 2.96 | Q 2.78 | D 3.31 | G 2.5 | K 2.85 | L 2.94 | E 2.88 | R 2.58 | W 2.22

Variants of: B2
Assay: as above
Settings: c terminus: native

Protein stability index: each site, then its substitutions
F10: I 2.42 | A 3.48 | C 2.56 | L 2.68 | P 4.44 | Y 1.92 | Q 3.61 | N 3.94 | H 3.46 | E 4.18 | G 4.09 | R 3.28 | S 4.25 | M 3.39 | V 2.34 | T 3.99 | D 4.69 | K 3.77 | W 1.94
F9: E 4.43 | H 3.48 | R 3.77 | A 3.78 | C 3.12 | T 3.64 | P 4.17 | K 4.13 | N 3.52 | Y 2.69 | M 2.51 | D 4.19 | S 3.56 | I 2.23 | G 3.69 | Q 3.63 | L 1.85
E15: S 1.74 | K 3.63 | A 1.59 | W 1.77 | F 1.57 | Y 2.69 | H 2.13 | T 2.72 | C 2.15 | L 3.25 | G 2.09 | N 1.86 | P 1.97 | M 1.57
A4: R 2.17 | K 2.61 | E 3.14 | G 2.68 | D 2.37 | S 2.66 | V 1.64 | L 2.14 | M 1.66 | Q 2.36 | W 2.27 | T 2.9 | F 1.31 | C 1.45 | Y 1.56 | H 3 | P 3.18 | N 2.87
G14: H 1.9 | S 1.73 | Y 3.67 | T 2.1 | W 2.8 | E 2.83 | D 3.17 | I 4.25 | N 2.76 | M 1.76 | A 2.48 | P 1.83 | C 1.19 | L 1.73 | K 2.23 | V 2.33 | Q 1.96
T17: F 1.61 | N 2.53 | S 1.48 | C 1.8 | M 2.46 | Q 2.63 | R 2.26 | D 2.79 | V 2.21 | L 2.04 | G 2.15 | E 2.7 | P 3.05 | Y 2.01 | H 1.77 | I 1.35
G6: D 3.48 | Q 2.6 | F 1.79 | S 2.27 | I 2.49 | K 2.15 | R 3.03 | P 2.78 | T 2.03 | N 2.56 | V 2.15 | C 1.5 | M 2.05 | E 3.1 | H 2.14 | Y 1.61 | A 1.58
H8: Q 2.15 | E 3.41 | A 2.21 | G 3.25 | F 1.9 | V 1.91 | P 2.97 | N 3.91 | K 3.24 | T 3.27 | C 1.78 | D 3.44 | I 2.19 | R 1.54
E5: I 3.25 | F 1.79 | H 1.85 | K 1.18 | A 2.17 | L 1.29 | S 2.17 | W 2.44 | C 1.26 | N 1.73 | P 1.86 | M 4.97 | V 1.36 | Q 2.16 | T 1.94 | Y 1.97
A16: S 2.12 | W 1.08 | V 2.3 | G 2.38 | H 2.63 | E 2.79 | R 1.98 | P 2.33 | D 3.16 | L 3.02 | M 2.1 | F 1.59 | Y 2.03 | C 2.46 | N 2.67 | Q 2.58 | I 1.64 | T 1.68
L1: G 4.09 | R 2.09 | I 1.79 | V 2.22 | M 2.34 | D 3.43 | C 2.48 | T 2.33 | A 2.58 | N 3.57 | H 1.48 | K 2.81 | Q 3.47 | S 3.02 | E 3.73
C11: T 2.94 | S 3.68 | K 3.5 | M 2.6 | R 2.33 | Y 2.12 | G 3.13 | L 2.42 | W 1.57 | N 3.04 | V 2.37 | Q 3.46 | P 3.7 | H 2.99 | D 3.45 | E 3.27 | I 1.66 | A 2.09
Q13: L 1.67 | Y 2.66 | V 1.9 | N 2.72 | K 2.63 | A 2.14 | H 1.56 | E 2.89 | R 1.93 | T 1.35 | M 1.07 | P 2.94 | G 1.61 | D 3.14 | C 1.48
E3: Q 1.82 | A 1.79 | H 1.67 | D 2.49 | I 3.97 | Y 2.18 | P 1.74 | N 1.48 | F 1.64 | G 1.78 | M 2.56 | C 1.89 | L 1.58 | W 1.37 | K 1.25 | R 1.43 | T 2.11 | S 1.75
T2: P 2.12 | F 1.8 | W 1.11 | I 3.08 | Q 2.48 | H 2.32 | A 1.38 | E 3.48 | M 2.71 | D 2.97 | R 2.14 | K 2.14 | Y 1.56 | G 1.76 | S 2.34 | C 1.99 | N 2.75
F12: T 3.88 | N 3.84 | R 2.87 | H 3.95 | P 3.85 | W 2.35 | G 3.42 | D 4.53 | K 4.01 | E 3.33 | Q 4.04 | I 2.55 | C 3.39 | M 2.5 | S 3.73 | A 3.56 | L 2.48 | Y 2.48
W7: L 3.12 | N 4.35 | G 3.63 | F 2.22 | M 3.5 | Y 2.58 | H 3.96 | C 3.87 | V 3.42 | E 4.9 | Q 4.29 | S 4.22 | R 3.72 | T 4.08 | K 3.88 | D 4.63 | P 4.43 | I 2.63
